Measured values from the supplement of paper PMC10724198.
± gives the standard deviation of the averaged measurements.

What was measured:
Saccharomyces cerevisiae [1] = assay: protein stability index of tFT-peptide fusion (C-terminal peptide) (PSI (0-1 scale)); higher = more stable (slower turnover); conditions: genetic background: wild type; temperature: 30 C
Saccharomyces cerevisiae [2] = assay: as above
Protocol: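 MPS profiling in S. cerevisiae of the tFT-X12 degron library: putative degron peptides plus stable controls, 12 aa, fused to the C-terminus of a sfGFP-mCherry timer. Cells are FACS-sorted into 8 mCherry/sfGFP bins and deep-sequenced. PSI runs from 0 (unstable) to 1 (stable). Backgrounds are wild type, das1Δ and doa10Δ at 30 °C, and wild type, das1Δ, cdc34-1 and cdc53-1 at 37 °C; 2-3 technical replicates each.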

[3] = genetic background: cdc34-1, temperature: 37 C
[4] = genetic background: cdc53-1, temperature: 37 C
[5] = genetic background: das1 deletion, temperature: 30 C
[6] = genetic background: das1 deletion, temperature: 37 C
[7] = genetic background: doa10 deletion, temperature: 30 C
[8] = genetic background: wild type, temperature: 30 C
[9] = genetic background: wild type, temperature: 37 C
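Further: PSI is a weighted mean of sequencing reads over stability bins, variants kept only with over 10 reads, mCherry proximal and sfGFP distal, peptide attached via GGGS linker.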

Sequence	protein stability index (Saccharomyces cerevisiae [1])	protein stability index (Saccharomyces cerevisiae [2]; [3])	protein stability index (Saccharomyces cerevisiae [2]; [4])	protein stability index (Saccharomyces cerevisiae [2]; [5])	protein stability index (Saccharomyces cerevisiae [2]; [6])	protein stability index (Saccharomyces cerevisiae [2]; [7])	protein stability index (Saccharomyces cerevisiae [2]; [8])	protein stability index (Saccharomyces cerevisiae [2]; [9])
NKTTKNKKRKLS	0.159 ± 0.014	0.467 ± 0.081	0.612 ± 0.048	0.697 ± 0.027	0.656 ± 0.0059	0.0924 ± 0.038	0.125 ± 0.067	0.173 ± 0.011
FYVIFRRACLSV	0.292 ± 0.077	0.281 ± 0.0084	0.32 ± 0.016	0.234 ± 0.03	0.3605 ± 0.0029	0.1681 ± 0.00044	0.195 ± 0.0079	0.299 ± 0.0099
GLGFFMSFCFFL	0.484 ± 0.036	0.554 ± 0.015	0.579 ± 0.031	0.477 ± 0.06	0.567 ± 0.011	0.474 ± 0.0077	0.4562 ± 0.0037	0.55817 ± 0.00049
FSCEFKMSCLKS	0.507 ± 0.011	0.649 ± 0.04	0.701 ± 0.0097	0.601 ± 0.023	0.679 ± 0.016	0.474 ± 0.015	0.488 ± 0.029	0.605 ± 0.017
VRFRLLNVLASA	0.468 ± 0.056	0.528 ± 0.0073	0.518 ± 0.048	0.395 ± 0.026	0.5582 ± 0.0043	0.34 ± 0.015	0.389 ± 0.021	0.5305 ± 0.0031
FLISVRFVLILN	0.173 ± 0.024	0.169 ± 0.027	0.186 ± 0.012	0.175 ± 0.021	0.278 ± 0.01	0.143 ± 0.0081	0.135 ± 0.0052	0.208 ± 0.0085
ERGSLPRIHHLI	0.257 ± 0.0082	0.6542 ± 0.0035	0.754 ± 0.017	0.688 ± 0.085	0.736 ± 0.011	0.127 ± 0.012	0.168 ± 0.034	0.31 ± 0.02
IFWAKRNLVRVT	0.363 ± 0.028	0.382 ± 0.0086	0.421 ± 0.011	0.307 ± 0.029	0.478 ± 0.0088	0.201 ± 0.0051	0.251 ± 0.025	0.402 ± 0.0096
LLLLLPLYLLPI	0.372 ± 0.048	0.24 ± 0.031	0.177 ± 0.037	0.31 ± 0.035	0.412 ± 0.021	0.553 ± 0.035	0.322 ± 0.017	0.368 ± 0.0062
FFMLLYSFFTFD	0.418 ± 0.014	0.434 ± 0.0044	0.50402 ± 2.8e-06	0.38 ± 0.033	0.51926 ± 0.00029	0.348 ± 0.004	0.375 ± 0.035	0.506 ± 0.024
LVLPAFLLLLYP	0.4134 ± 0.0013	0.2108 ± 0.0018	0.183 ± 0.022	0.307 ± 0.034	0.4212 ± 0.0012	0.509 ± 0.023	0.309 ± 0.028	0.367 ± 0.0037
VCNQVPGVIWFC	0.481 ± 0.022	0.683 ± 0.036	0.771 ± 0.017	0.654 ± 0.018	0.7556 ± 0.0068	0.373 ± 0.0045	0.412 ± 0.018	0.61183 ± 8.6e-05
GFVRTVWLMCYV	0.245 ± 0.032	0.286 ± 0.027	0.341 ± 0.017	0.285 ± 0.025	0.417 ± 0.013	0.129 ± 0.017	0.161 ± 0.012	0.203 ± 0.013
GGLGIVWLWLVV	0.378 ± 0.047	0.344 ± 0.021	0.42 ± 0.024	0.307 ± 0.033	0.4926 ± 0.0048	0.234 ± 0.016	0.282 ± 0.02	0.467 ± 0.016
AVLVSGMVVWLV	0.436 ± 0.032	0.643 ± 0.053	0.709 ± 0.015	0.54 ± 0.025	0.672 ± 0.06	0.32 ± 0.013	0.357 ± 0.0096	0.563 ± 0.01
GVVVWWCYFVFV	0.257 ± 0.03	0.181 ± 0.012	0.298 ± 0.034	0.183 ± 0.031	0.3631 ± 0.00064	0.161 ± 0.0072	0.161 ± 0.021	0.321 ± 0.0065
SPLLLIIFRSLC	0.18 ± 0.038	0.505 ± 0.096	0.558 ± 0.0093	0.436 ± 0.039	0.623 ± 0.025	0.107 ± 0.0011	0.119 ± 0.0077	0.183 ± 0.019
FLLHLVAHFSFL	0.527 ± 0.044	0.544 ± 0.014	0.571 ± 0.0063	0.517 ± 0.0071	0.531 ± 0.0066	0.473 ± 0.027	0.472 ± 0.017	0.503 ± 0.003
VLPQSVWILVRV	0.2609 ± 0.0026	0.0621 ± 0.016	0.0737 ± 0.0062	0.172 ± 0.024	0.236 ± 0.012	0.144 ± 0.021	0.155 ± 0.032	0.1936 ± 0.0014
GCVVVLIPVVSA	0.382 ± 0.022	0.333 ± 0.014	0.338 ± 0.0038	0.249 ± 0.038	0.415 ± 0.0087	0.215 ± 0.0045	0.266 ± 0.015	0.381 ± 0.0088
HMSAISLIGALA	0.519 ± 0.029	0.595 ± 0.051	0.575 ± 0.04	0.436 ± 0.06	0.595 ± 0.011	0.392 ± 0.0086	0.434 ± 0.02	0.5673 ± 0.0013
AGSPPSRPPWLP	0.506 ± 0.018	0.675 ± 0.047	0.7369 ± 0.0062	0.679 ± 0.051	0.759 ± 0.024	0.679 ± 0.034	0.678 ± 0.021	0.719 ± 0.042
YNNKITRYRRDS	0.52 ± 0.082	0.654 ± 0.053	0.731 ± 0.034	0.661 ± 0.055	0.752 ± 0.0077	0.388 ± 0.012	0.375 ± 0.024	0.612 ± 0.0082
ERLVFKRWYLCL	0.123 ± 0.018	0.585 ± 0.028	0.605 ± 0.062	0.571 ± 0.033	0.7056 ± 0.0052	0.0726 ± 0.026	0.0951 ± 0.039	0.136 ± 0.0091
VWAWAVVVFVVL	0.241 ± 0.009	0.196 ± 0.054	0.343 ± 0.0075	0.205 ± 0.02	0.379 ± 0.017	0.171 ± 0.01	0.2 ± 0.035	0.385 ± 0.046
SREPPTSTSSRH	0.519 ± 0.13	0.6388 ± 0.0031	0.709 ± 0.032	0.685 ± 0.012	0.669 ± 0.016	0.696 ± 0.025	0.703 ± 0.011	0.679 ± 0.0072
LRTYSFTIGTLC	0.385 ± 0.012	0.616 ± 0.052	0.637 ± 0.027	0.471 ± 0.024	0.6402 ± 0.0061	0.241 ± 0.027	0.279 ± 0.035	0.492 ± 0.015
TPPFFDIFVVLL	0.46 ± 0.037	0.576 ± 0.052	0.652 ± 0.023	0.463 ± 0.027	0.6652 ± 0.0032	0.456 ± 0.021	0.48 ± 0.031	0.616 ± 0.043
CVLFLGQILCVV	0.332 ± 0.0076	0.266 ± 0.018	0.328 ± 0.01	0.28 ± 0.033	0.3857 ± 0.00079	0.236 ± 0.011	0.276 ± 0.017	0.339 ± 0.026
GCPRSWSFNIYV	0.408 ± 0.04	0.686 ± 0.046	0.739 ± 0.0099	0.665 ± 0.013	0.742 ± 0.018	0.182 ± 0.018	0.199 ± 0.022	0.463 ± 0.013
